PMC6237804, “Nonfilament-forming RecA dimer catalyzes homologous joint formation” (Nucleic Acids Research, 2018)

B1: Wild-type RecA (RecA-wt) (natural protein, E. coli, UniProt P0A7G6 1-353, looked up)
chain: MAIDENKQKALAAALGQIEKQFGKGSIMRLGEDRSMDVETISTGSLSLDIALGAGGLPMGRIVEIYGPESSGKTTLTLQVIAAAQREGKTCAFIDAEHALDPIYARKLGVDIDNLLCSQPDTGEQALEICDALARSGAVDVIVVDSVAALTPKAEIEGEIGDSHMGLAARMMSQAMRKLAGNLKQSNTLLIFINQIRMKIGVMFGNPETTTGGNALKFYASVRLDIRRIGAVKEGENVVGSETRVKVVKNKIAAPFKQAEFQILYGEGINFYGELVDLGVKEKLIEKAGAWYSYKGEKIGQGKANATAWLKDNPETAKEIEKKVRELLLSNPNSTPDFSVDDSEGVAETNEDF
notes: wild-type RecA, Escherichia coli; source: purified as previously described (21,33)
B2: OL2 90-mer ssDNA (ssDNA)
DNA: AAATCAATCTAAAGTATATATGAGTAAACTTGGTCTGACAGTTACCAATGCTTAATCAGTGAGGCACCTATCTCAGCGATCTGTCTATTT

What was measured:
[1] = target: the molecule itself; assay: scanning-probe microscopy in dynamic force mode (DFM); RecA variant (0.2 μM RecA-wt or npRecA dimer, 0.8 μM npRecA monomer) incubated with linear pUC119 dsDNA (2.0 μM), ATPγS (0.5 mM), MgCl2 (10 mM), Tris-HCl pH 7.5, DTT, 30 min at 37°C; fixed with glutaraldehyde (0.2%) on mica; filament formation on DNA; also done with circular phage ssDNA
[2] = target: npRecA monomer (UniProt P0A7G6 31-337, C117M;S118V;Q119R); assay: EMSA; no nucleotide cofactor; EMSA: standard reaction buffer (composition not in material), 4.5 uM (nt) ssDNA or 9.0 uM dsDNA, agarose gel, no fixation; 6-MI: 25 mM Tris-HCl pH 7.5, 10 mM MgCl2, 1 mM DTT, 25 C, 3.0 uM DNA; DFM: 0.5 mM ATPgS, 10 mM MgCl2, glutaraldehyde fixation; conditions: protein: recombinant; label: FAM
[3] = target: RecA-3mΔC (UniProt P0A7G6 2-337, C117M;S118V;Q119R); assay: EMSA; 1.3 mM ATP; 'defective'; EMSA: standard reaction buffer (composition not in material), 4.5 uM (nt) ssDNA or 9.0 uM dsDNA, agarose gel, no fixation; 6-MI: 25 mM Tris-HCl pH 7.5, 10 mM MgCl2, 1 mM DTT, 25 C, 3.0 uM DNA; DFM: 0.5 mM ATPgS, 10 mM MgCl2, glutaraldehyde fixation; conditions: protein: recombinant; label: FAM
RecA-3mΔC, sequence (P0A7G6 2-337 C117M/S118V/Q119R): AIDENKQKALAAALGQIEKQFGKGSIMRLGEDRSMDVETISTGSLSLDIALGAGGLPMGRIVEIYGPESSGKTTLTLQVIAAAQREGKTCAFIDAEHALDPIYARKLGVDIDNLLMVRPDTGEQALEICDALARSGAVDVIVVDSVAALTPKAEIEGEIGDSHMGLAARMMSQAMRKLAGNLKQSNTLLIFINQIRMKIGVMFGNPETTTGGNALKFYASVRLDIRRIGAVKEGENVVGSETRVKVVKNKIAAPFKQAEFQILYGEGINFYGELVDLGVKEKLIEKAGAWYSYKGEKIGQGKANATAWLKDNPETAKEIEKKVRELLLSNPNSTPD

npRecA monomer, sequence (P0A7G6 31-337 C117M/S118V/Q119R): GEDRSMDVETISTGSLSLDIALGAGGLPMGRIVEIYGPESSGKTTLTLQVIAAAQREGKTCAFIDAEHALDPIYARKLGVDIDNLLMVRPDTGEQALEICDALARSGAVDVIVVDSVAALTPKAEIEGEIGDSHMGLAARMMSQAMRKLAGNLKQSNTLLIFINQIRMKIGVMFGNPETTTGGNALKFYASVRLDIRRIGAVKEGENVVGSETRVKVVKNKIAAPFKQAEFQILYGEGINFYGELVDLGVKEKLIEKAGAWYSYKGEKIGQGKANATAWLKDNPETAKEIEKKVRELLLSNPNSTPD

| Binder | binding result [1] | binding result [2] | binding result [3] |
| --- | --- | --- | --- |
| B1 | binds |  |  |
| B2 |  | no binding | no binding |
